Among the data in publication PMC11276676 are stoichiometry N values, retold here.

Common to all, as to test: AUC; sedimentation velocity, absorbance detection, 20 °C, 20 mM Hepes-NaOH with 1 mM TCEP, without (pH 6.79) or with (pH 6.87) 150 mM NaCl, 42,000 rpm, protein 1.30-1.53 and 2.73-5.98 µM; monomer to dimer
In assay [1] the target is Helicobacter pylori adenylosuccinate synthetase with His6-tag fused on its N-terminus (Helicobacter pylori (reference strain 26695)) (UniProt P56137).
For assay [2], the target named is Helicobacter pylori adenylosuccinate synthetase with His6-tag on the C-terminus (Helicobacter pylori (reference strain 26695)) (UniProt P56137).
The target of assay [3] is wild-type Helicobacter pylori adenylosuccinate synthetase (Helicobacter pylori (reference strain 26695)) (UniProt P56137).

On to “Helicobacter pylori adenylosuccinate synthetase with His6-tag fused on its N-terminus (from UniProt P56137 1-411) (enzyme)”, for which the stoichiometry N – broadly, a count of units in the complex or per binding partner – in assay [1] turned out to be 2.

“Helicobacter pylori adenylosuccinate synthetase with His6-tag on the C-terminus (from UniProt P56137 1-411) (enzyme)”: the stoichiometry N in assay [2] was found to be 2.

Turning to “wild-type Helicobacter pylori adenylosuccinate synthetase (from UniProt P56137 1-411) (enzyme)”, the stoichiometry N in assay [3] came to 2.
